The experiment deals with T1, hUPK1B(108-229)-Fc, second extracellular domain of human UPK1B fused to human IgG2 Fc (human, UniProt O75841 108-229).
T1 construct: Expressed behind an IgK signal peptide, which is not part of the secreted protein; also called hUPK1B-Fc; Fc-fusion human UPK1B protein; not shown: human IgG2 Fc protein
T1 sequence: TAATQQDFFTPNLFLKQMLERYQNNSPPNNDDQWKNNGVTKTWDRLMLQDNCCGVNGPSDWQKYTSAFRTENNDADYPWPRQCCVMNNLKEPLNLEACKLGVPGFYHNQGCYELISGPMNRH
Description: SPR, Biacore T200; human UPK1B Fc-fusion captured on anti-human chip, papain-digested Fab as analyte, 1:1 Langmuir fit.

B1: chimSC115.18 (Fab, V domains shown)
VH: QVQLQQPGAELVRPGSSVKLSCKASGYTFTSYWMHWVKQRPMQGLEWIGNIDPSDSEIYYNQKFKDKATLTVDKSSGTAYMQLSSLTSEDSAVYYCARRSGSRDYYGMDDWGQGTSVTVSS
VL: DIVMTQSPSSLTVTAGEKVTMRCKSSQSLLNSGNQKNYLTWYQQKPGQPPKLLISWASTRDSGVPDRFTGSGSRTDFILTISSVQAEDLAVYYCQNDYSYPLTFGAGTKLELK
notes: also called Fab fragment (papain-digested) of chimeric SC115.18; parental chimeric antibody
Usually Kd stands for the free concentration of one partner at which half of the binding sites on the other are occupied at equilibrium, for simple one-to-one binding. B1 had a Kd of 3.6 nM.

For the origin of these results see patent US20190000969A1 (AbbVie / Abbott, published 2019).
